# ± gives the standard deviation of the averaged measurements.
# Test system: Saccharomyces cerevisiae
# Assay: protein stability index of tFT-peptide fusion (C-terminal peptide) (PSI (0-1 scale)); higher = more stable (slower turnover)
# Settings: genetic background: wild type; temperature: 30 C
# 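Also: PSI is a weighted mean of sequencing reads over stability bins, variants kept only with over 10 reads, mCherry proximal and sfGFP distal, peptide attached via GGGS linker.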
row,Sequence,protein stability index
1,PLRVDLTHQQWS,0.574 ± 0.11
2,PLRYPQLTLPPP,0.6381 ± 0.0037
3,PLSDRGGRFPML,0.7 ± 0.053
4,PLSLIAFAISPC,0.637 ± 0.015
5,PLSPFLPPPVPL,0.703 ± 0.13
6,PLSPFLRFLSSP,0.605 ± 0.072
7,PLSPPLPPAIPS,0.698 ± 0.063
8,PLSPPPRPPPSP,0.654 ± 0.066
9,PLSPPPRRPPSP,0.655 ± 0.022
10,PLSSILSPSSPA,0.729 ± 0.052
11,PLTFRYQSHSAH,0.702 ± 0.11
12,PLTNPPRSRKSS,0.783 ± 0.12
13,PLTTTPPTRHTP,0.6978 ± 0.004
14,PLWHCFRFLSGS,0.607 ± 0.014
15,PMPPPRRPTALC,0.716 ± 0.038
16,PNPPPPPPPSSP,0.742 ± 0.058
17,PNRPPLQFFPPP,0.697 ± 0.05
18,PNSTIVATKGVT,0.648 ± 0.076
19,PPAASSFRLSSC,0.751 ± 0.1
20,PPALPPTGHPPF,0.709 ± 0.013
21,PPAPFAICRTRS,0.654 ± 0.018
22,PPAPPAPPPSVG,0.708 ± 0.03
23,PPAPPPPPPSPP,0.659 ± 0.029

row,Sequence,protein stability index
1,PPAPPPPSTPHP,0.672 ± 0.13
2,PPAPPPVSPPRP,0.7075 ± 0.0027
3,PPAPPSQPINAT,0.709 ± 0.053
4,PPAPSPPLPSLA,0.694 ± 0.037
5,PPAPTHSAPSQI,0.655 ± 0.07
6,PPARTPPGLPRP,0.723 ± 0.29
7,PPASPPAPRPPV,0.759 ± 0.018
8,PPATTPASTNLQ,0.7 ± 0.017
9,PPAVDSSPRSRD,0.7148 ± 0.0019
10,PPCAPFSPPALP,0.659 ± 0.05
11,PPCCFPRSPSPS,0.714 ± 0.049
12,PPCPAPLSPPLG,0.676 ± 0.049
13,PPCPSPPLFLPS,0.687 ± 0.063
14,PPCRREEQTDNH,0.682 ± 0.059
15,PPCTVKAQRAYD,0.694 ± 0.035
16,PPDALTHPTPPQ,0.703 ± 0.013
17,PPFFLLLPPTIF,0.67 ± 0.063
18,PPFPKFPRPRLH,0.738 ± 0.04
19,PPFSHLPYLLPP,0.685 ± 0.015
20,PPFTARPATLAR,0.565 ± 0.017
21,PPFVPGEVRRTV,0.6867 ± 0.0036
22,PPGLRSYACCRN,0.7615 ± 0.0046
23,PPGNPPPRRLTS,0.695 ± 0.053

row,Sequence,protein stability index
1,PPGPLPPLSSTP,0.661 ± 0.034
2,PPGPVVPPPPPD,0.664 ± 0.027
3,PPHFPPRPRPGP,0.685 ± 0.015
4,PPHHSLSPPLPP,0.6607 ± 0.0014
5,PPHPPAPHPSPT,0.733 ± 0.069
6,PPHPPNPLPTPQ,0.829 ± 0.17
7,PPHSALPLPPSP,0.726 ± 0.039
8,PPHSHCPSAPHN,0.643 ± 0.082
9,PPLALPPGPARP,0.738 ± 0.016
10,PPLAMVLYSLFE,0.556 ± 0.013
11,PPLAPDPPPRVY,0.654 ± 0.013
12,PPLAPLPSAPLR,0.674 ± 0.058
13,PPLDPPPAPPPP,0.693 ± 0.08
14,PPLFPYRPPQPT,0.697 ± 0.099
15,PPLHPPPPAFVF,0.64175 ± 0.00037
16,PPLHSSPPAVPP,0.699 ± 0.038
17,PPLLPLSPRPPA,0.704 ± 0.089
18,PPLLPPPHPFPP,0.6656 ± 0.0053
19,PPLLPPPPAFVF,0.668 ± 0.0069
20,PPLLPRLLTPTP,0.671 ± 0.087
21,PPLLPSPPRPPL,0.774 ± 0.078
22,PPLNPPRSPFSP,0.6814 ± 0.0018
23,PPLPAPPQSPHT,0.705 ± 0.028

row,Sequence,protein stability index
1,PPLPLTLRSSPS,0.677 ± 0.031
2,PPLPPLPAPSPV,0.652 ± 0.021
3,PPLPPPSVRPSS,0.63 ± 0.028
4,PPLPPPTPLQCL,0.696 ± 0.027
5,PPLPPSLPPPPP,0.63 ± 0.12
6,PPLPPSPPCPPA,0.642 ± 0.079
7,PPLPPSSPRSLL,0.701 ± 0.018
8,PPLPRLPPPPLP,0.627 ± 0.029
9,PPLPRSPSPPPP,0.644 ± 0.028
10,PPLRLSHFPRAD,0.659 ± 0.06
11,PPLRPAADFRTT,0.733 ± 0.093
12,PPLRPGLLYSPS,0.687 ± 0.019
13,PPLSLSPYPLPH,0.69464 ± 0.0002
14,PPLVHPCPSSHI,0.801 ± 0.088
15,PPNTSVPSSLGR,0.667 ± 0.038
16,PPPAPARPPTPP,0.686 ± 0.11
17,PPPAPPCRLMSP,0.719 ± 0.059
18,PPPAPPLLPPLP,0.718 ± 0.033
19,PPPAPPPSPPSN,0.675 ± 0.044
20,PPPAPPTPPSPP,0.628 ± 0.028
21,PPPARSRCTHPT,0.706 ± 0.026
22,PPPASLTSPRQP,0.731 ± 0.013
23,PPPASPLVPPSP,0.712 ± 0.021

row,Sequence,protein stability index
1,PPPAYTPPLPPP,0.669 ± 0.0073
2,PPPCPPPRRHPP,0.605 ± 0.022
3,PPPDSPPLPAPP,0.659 ± 0.033
4,PPPFLQPLPASP,0.729 ± 0.045
5,PPPFSPPAPSPP,0.669 ± 0.053
6,PPPHAKPPPGPL,0.672 ± 0.019
7,PPPHIPPPPLSA,0.682 ± 0.025
8,PPPHPLPPLPAT,0.744 ± 0.043
9,PPPIPGDPTPCP,0.667 ± 0.021
10,PPPLACLPLSLR,0.71 ± 0.043
11,PPPLACPSPPVT,0.734 ± 0.12
12,PPPLFPALHHPP,0.639 ± 0.051
13,PPPLLPPHLPLL,0.717 ± 0.032
14,PPPLLPPRPLAP,0.731 ± 0.019
15,PPPLLPPTLPPR,0.713 ± 0.047
16,PPPLPLPPPLPP,0.533 ± 0.046
17,PPPLPLPSPPPP,0.671 ± 0.089
18,PPPLPPIPSRPH,0.701 ± 0.019
19,PPPLPPLSPPPS,0.749 ± 0.023
20,PPPLPPPPPAPS,0.692 ± 0.0096
21,PPPLPPPPPPPP,0.673 ± 0.026
22,PPPLPPPTPLPT,0.681 ± 0.12
23,PPPLPPRLPHLA,0.664 ± 0.036

row,Sequence,protein stability index
1,PPPLRAFPPPLL,0.648 ± 0.06
2,PPPLSCPRPPIT,0.664 ± 0.031
3,PPPLSLLPPCSP,0.678 ± 0.12
4,PPPNPFRGPFPL,0.663 ± 0.035
5,PPPPAPPPLLLP,0.717 ± 0.044
6,PPPPAPSPPIPP,0.692 ± 0.037
7,PPPPDPPAPSSP,0.749 ± 0.078
8,PPPPFPPPSPPL,0.7147 ± 0.0063
9,PPPPFRPSPPLP,0.664 ± 0.0084
10,PPPPHAHFPPPP,0.652 ± 0.013
11,PPPPHPPPPLFP,0.714 ± 0.083
12,PPPPHPPRPPRP,0.676 ± 0.0074
13,PPPPLAPAPPAF,0.744 ± 0.016
14,PPPPLLPPPIPL,0.6847 ± 0.0032
15,PPPPLLRSPLHL,0.731 ± 0.011
16,PPPPLPDTLRSP,0.6238 ± 0.0053
17,PPPPLPLPPFSP,0.8017 ± 0.0011
18,PPPPLPPCTPAT,0.6797 ± 0.0047
19,PPPPLPPLSPSP,0.7604 ± 0.0068
20,PPPPLPPSPCSL,0.567 ± 0.019
21,PPPPLRPPAAPP,0.639 ± 0.005
22,PPPPPLPRSPSP,0.807 ± 0.12
23,PPPPPLYLPRFV,0.675 ± 0.056

row,Sequence,protein stability index
1,PPPPPPARLPSP,0.711 ± 0.017
2,PPPPPPATPPPS,0.681 ± 0.045
3,PPPPPPGHLPRL,0.76 ± 0.05
4,PPPPPPGSPTRP,0.788 ± 0.075
5,PPPPPPLFPPCP,0.659 ± 0.11
6,PPPPPPLSPSPP,0.756 ± 0.011
7,PPPPPPLVLSPL,0.678 ± 0.02
8,PPPPPPPHLPSL,0.711 ± 0.079
9,PPPPPPPLPSLR,0.671 ± 0.0086
10,PPPPPPPLVPPL,0.703 ± 0.12
11,PPPPPPPNSHPH,0.678 ± 0.021
12,PPPPPPPPAPLP,0.708 ± 0.089
13,PPPPPPPPLPPP,0.5856 ± 0.0041
14,PPPPPPPPPPPP,0.627 ± 0.031
15,PPPPPPPPPPSL,0.746 ± 0.061
16,PPPPPPPPPPSS,0.709 ± 0.13
17,PPPPPPPPPRSS,0.718 ± 0.021
18,PPPPPPPPSALP,0.719 ± 0.043
19,PPPPPPPRPDPP,0.557 ± 0.04
20,PPPPPPPYPLIP,0.67 ± 0.013
21,PPPPPPRFHALH,0.715 ± 0.021
22,PPPPPPRRSSPP,0.681 ± 0.069

# From the supplement of paper PMC10724198
